Assay results from patent publication US20160251440A1 (Ablynx, published 2016).

Columns and labels:
[1] = target: T1, CXCR4 and CD4 co-expressed on cells (MOLM-13, THP-1, MT-4, PBMC; Jurkat CD4 low) (human, UniProt P61073 1-352; P01730 26-458); assay: FACS, THP-1 cells
T1 construct: whole, on cells; two separate membrane proteins on one cell, not a complex; target of bispecifics; also called CXCR4+/CD4+ cells

[2] = target: T1, CXCR4 and CD4 co-expressed on cells …; assay: FACS, MOLM-13 cells (CXCR4+/CD4+)
[3] = target: T1, CXCR4 and CD4 co-expressed on cells …; assay: cell-based or functional assay
[4] = target: T1, CXCR4 and CD4 co-expressed on cells …; assay: cell-based or functional assay; remark: listed apart in the source
[5] = target: T1, CXCR4 and CD4 co-expressed on cells …; assay: cell-based or functional assay; remark: listed apart in the source
[6] = target: T1, CXCR4 and CD4 co-expressed on cells …; assay: FACS, Jurkat E6-1 cells (CXCR4+/CD4 low)
[7] = target: T2, human CXCR4 (on cells, viral lipoparticles or membrane extracts) (human, UniProt P61073 1-352); assay: cell-based or functional assay
[8] = target: T1, CXCR4 and CD4 co-expressed on cells …; assay: cell-based or functional assay; remark: listed apart in the source
[9] = target: T3, human IL12Rβ1 extracellular domain Fc-fusion (human, UniProt P42701 24-545); assay: SPR Biacore T100, captured IL12Rβ1-Fc
T3 construct: extracellular domain; bought; also called IL12Rβ1-Fc; hIL-12Rβ1-Fc; not shown: Fc part, captured by anti-hIgG

[10] = target: T3, human IL12Rβ1 extracellular domain …; assay: competition ELISA, coated IL-12 + 2 nM IL12Rβ1-Fc
[11] = target: T4, human IL12Rβ1, cell-expressed (human, UniProt P42701 24-662); assay: cell-based or functional assay
[12] = target: T5, human CD4, cell-expressed (human, UniProt P01730 26-458); assay: flow cytometry on MOLM-13 cells (CD4, no IL12R or IL23R), lower left panel
T5 construct: whole, on cells

[13] = target: T4, human IL12Rβ1, cell-expressed; assay: cell-based or functional assay; remark: listed apart in the source
[14] = target: T3, human IL12Rβ1 extracellular domain …; assay: competition ELISA, coated IL-23 + IL12Rβ1-Fc
[15] = target: T3, human IL12Rβ1 extracellular domain …; assay: competition ELISA, coated IL-23 + 2 nM IL12Rβ1-Fc
[16] = target: T3, human IL12Rβ1 extracellular domain …; assay: competition ELISA, coated IL-12 + IL12Rβ1-Fc
[17] = target: T4, human IL12Rβ1, cell-expressed; assay: FACS, activated human T cells
[18] = target: T2, human CXCR4 (on cells, viral …); assay: flow cytometry at one concentration on Jurkat E6-1 cells (CXCR4+/CD123-), anti-FLAG detection
[19] = target: T6, human IL-3Rα (CD123), cell-expressed (human, UniProt P26951 19-378); assay: FACS, HEK293T-IL-3Rα cells
T6 construct: whole, on cells; also called IL-3Ra; Hek-IL-3Rα

[20] = target: T6, human IL-3Rα (CD123), cell-expressed; assay: FACS, THP-1 cells
[21] = target: T7, recombinant IL-3Rα ectodomain (human, UniProt P26951 19-305); assay: ELISA on recombinant IL-3Ra ectodomain (panel 'IL-3Ra ELISA', lower left)
T7 construct: extracellular domain; also called recombinant IL-3Ra; biotinylated-IL-3Rα ectodomain
T7 sequence (looked up): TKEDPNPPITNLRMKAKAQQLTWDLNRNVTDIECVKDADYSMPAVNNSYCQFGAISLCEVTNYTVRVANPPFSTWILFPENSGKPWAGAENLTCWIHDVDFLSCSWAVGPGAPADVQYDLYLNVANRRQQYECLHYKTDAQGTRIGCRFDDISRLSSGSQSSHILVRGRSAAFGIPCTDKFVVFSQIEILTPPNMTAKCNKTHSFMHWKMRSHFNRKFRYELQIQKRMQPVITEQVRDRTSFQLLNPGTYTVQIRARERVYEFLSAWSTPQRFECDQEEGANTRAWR

[22] = target: T6, human IL-3Rα (CD123), cell-expressed; assay: flow cytometry on Molm-13 cells; EC50(M) printed in the legend box beside the curves
[23] = target: T7, recombinant IL-3Rα ectodomain; assay: competition ELISA, coated mAb 7G3 + biotinylated IL-3Rα ectodomain
[24] = target: T7, recombinant IL-3Rα ectodomain; assay: SPR ProteOn, immobilised IL-3Rα ectodomain
[25] = target: T6, human IL-3Rα (CD123), cell-expressed; assay: FACS, MOLM-13 cells
[26] = target: T2, human CXCR4 (on cells, viral …); assay: ELISA on coated CXCR4 viral lipoparticles (both upper panels)
[27] = target: T7, recombinant IL-3Rα ectodomain; assay: ELISA on recombinant IL-3Ra ectodomain (lower right panel)

T2 sequence (P61073 whole entry): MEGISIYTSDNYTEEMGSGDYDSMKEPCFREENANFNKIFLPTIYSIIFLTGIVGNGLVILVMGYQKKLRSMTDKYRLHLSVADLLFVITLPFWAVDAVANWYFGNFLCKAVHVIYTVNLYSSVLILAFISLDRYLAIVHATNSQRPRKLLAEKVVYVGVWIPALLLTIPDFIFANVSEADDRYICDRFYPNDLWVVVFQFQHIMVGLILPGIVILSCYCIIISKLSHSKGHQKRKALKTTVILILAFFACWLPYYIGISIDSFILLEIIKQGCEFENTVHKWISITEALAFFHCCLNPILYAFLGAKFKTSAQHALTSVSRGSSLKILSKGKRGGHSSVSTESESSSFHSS
T1 sequence (P61073 whole entry, chain 1 of 2, other chains not shown): as the sequence (P61073 whole entry) above

B1: 281F12-35GS-03F11 (bispecific antibody)
chain: EVQLVESGGGLVQAGDSLRLSCAASGRAFSRYAMGWFRQAPGKEREFVAAIGWGPSKTNYADSVKGRFTISRDNAKNTVYLQMNTLKPEDTAVYSCAAKFVNTDSTWSRSEMYTYWGQGTQVTVSSGGGGSGGGGSGGGGSGGGGSGGGGSGGGGSGGGGSEVQLVESGGGSVQPGGSLTLSCGTSGRTFNVMGWFRQAPGKEREFVAAVRWSSTGIYYTQYADSVKSRFTISRDNAKNTVYLEMNSLKPEDTAVYYCAADTYNSNPARWDGYDFRGQGTQVTVSS
notes: also called CXCR4#2-35GS-CD4#8; CXCR4#2-CD4#8
Question: How did the EC50 [1] turn out when B1 was run?
Answer: 0.67 nM

Question: And the EC50 [2]?
Answer: 1.1 nM

Question: And the “IC50, HIV-1 HE, MT-4” value [3]?
Answer: 0.0906 nM

Question: What about the “IC50, HIV-1 NL4.3, MT-4” value [3] of the same binder?
Answer: 0.187 nM

Question: And the “IC50, HIV-2 ROD, MT-4” value [3]?
Answer: 0.3 nM

Question: What about the “IC50, HIV-1 NL4.3 wt, MT-4” value [4] of the same binder?
Answer: 0.187 nM

Question: And the “IC50, NL4.3 2G12 res., MT-4” value [4]?
Answer: 0.11 nM

Question: And the “IC50, NL4.3 AMD-3100 res., MT-4” value [4]?
Answer: 1.13 nM

Question: What about the “IC50, NL4.3 CD4#8 res., MT-4” value [4] of the same binder?
Answer: 0.31 nM

Question: And the “IC50, NL4.3 CXCL-12res., MT-4” value [4]?
Answer: 0.433 nM

Question: What about the “IC50, NL4.3 CXCR4#2 res, MT-4” value [4] of the same binder?
Answer: 1.4 nM

Question: And the “enhancement vs monovalent CD4#8, HIV-1 BaL, PBMC” value [5]?
Answer: ~200 fold

Question: What about the EC50 [6] of the same binder?
Answer: 11 nM

Question: And the “Fold increase vs CXCR4#2, Jurkat E6-1” value [7]?
Answer: 0.8 fold

Question: What about the “Fold increase vs CXCR4#2, MOLM-13” value [7] of the same binder?
Answer: 146 fold

Question: What about the “IC50, SDF-1 chemotaxis, Jurkat E6-1” value [7] of the same binder?
Answer: 110 nM

Question: What about the “IC50, SDF-1 chemotaxis, MOLM-13” value [7] of the same binder?
Answer: 0.59 nM

Question: And the “IC50, HIV-1 BaL (R5), PBMC” value [8]?
Answer: 2.46 nM

Question: What about the “IC50, HIV-1 NL4.3 (X4), MT-4” value [8] of the same binder?
Answer: 0.24 nM

Question: What about the “IC50, HIV-1 NL4.3 (X4), PBMC” value [8] of the same binder?
Answer: 0.37 nM

Question: And the “IC50, HIV-1 NL4.3 (X4), U87” value [8]?
Answer: 2.67 nM

B2: IL12Rb1#30: 148C09 (VHH)
VHH: EVQLVESGGGLVQTGGSLRLSCAASGRTPRLVAMGWFRQTPGKEREFVGEIILSKGFTYYADSVKGRFTISRVNAKNTITMYLQMNSLKSEDTAVYYCAGRQNWSGSPARTNEYEYWGQGTLVTVSS
notes: also called IL12Rβ1#30; LG148C09
Question: What does the source list for B2?
Answer: Kd [9]: 3.3 nM; koff [9]: 0.0015 s⁻¹; kon [9]: 450000 M⁻¹ s⁻¹; IC50 [10]: 3.7 nM; IC50, IL-12 induced IFNγ release, PBMC D840 [11]: 17 nM; IC50, IL-12 induced IFNγ release, T cells D839 [11]: 140 nM; binding result [12]: no binding (tested: 1E-6 M); IC50, IL-17 release, PBMC D840 [13]: 35.5 nM; IC50 [14]: 1.5 nM; IC50 [15]: 1.5 nM; IC50 [16]: 3.7 nM; EC50 [17]: 1.3 nM

B3: 55A01 (VHH)
VHH: EVQLVESGGGSVQAGGSLRLSCTTSGRALNMYVMGWFRQAPGNEREFVAATSSSGGSTSYPDSVKGRFTISRDNAKNTVYLQMNSLKPEDTAAYRCAASPYVSTPTMNILEEYRYWGLGTQVTVSS
notes: also called CD123#2; A0110055A01
Question: What does the source list for B3?
Answer: binding result [18]: no binding (tested: 4.6 nM); EC50 [19]: 1.1 nM; EC50 [20]: 11 nM; EC50 (read off the curve) [21]: ~1 nM; EC50 [22]: 13 nM; IC50 [23]: 40 nM; Kd [24]: 17.1 nM; koff [24]: 0.0014 s⁻¹; kon [24]: 84000 M⁻¹ s⁻¹; EC50 [25]: 8.2 nM

B4: 57A07 (VHH)
VHH: EVQLVESGGGLVQAGGSLRLSCAASGSIFSGNVMGWYRRQAPGKEREWVAAIASGGSIYYRDSVKGRFTISRDNAKNTVYLQMNSLKPEDTAVYYCNSHPPTLPYWGLGTQVTVSS
notes: also called CD123#1; A0110057A07
Question: With B4 as the binder, how does the EC50 [19] read?
Answer: 0.24 nM

Question: What about the EC50 [20] of the same binder?
Answer: 1.3 nM

Question: What about the EC50 [22] of the same binder?
Answer: 0.67 nM

Question: What about the IC50 [23] of the same binder?
Answer: 1.2 nM

Question: And the Kd [24]?
Answer: 0.783 nM

Question: And the koff [24]?
Answer: 0.00081 s⁻¹

Question: And the kon [24]?
Answer: 1e+06 M⁻¹ s⁻¹

Question: Does B4 bind [26]?
Answer: no binding (tested: about 1E-5 M)

Question: And the “EC50 (read off the curve)” value [27]?
Answer: ~0.5 nM

Question: And the EC50 [25]?
Answer: 0.66 nM
